According to the supplement of paper PMC7877785:
± gives the uncertainty stated by the source.

Assay: self-splicing fitness, log relative to wild type (ln ratio); higher = more splicing; Tetrahymena group I intron in knt gene, E. coli kanamycin selection, DiMSum; sequences stand for … in CUCUCU…GGAGGGAAAAGUUAUCAGGCAUGCACCUGGUAGCUAGUCUUUAAACCAAUAGAUUGCAUCGGUUUAAAAGGCAAGACCGUCAAAUUGCGGGAAAGGGGUCAACAGCCGUUCAGUACCAAGUCUCAGGGGAAACUUUGAGAUGGCCUUGCAAAGGGUAUGGUAAUAAGCUGACGGACAUGGUCCUAACCACGCAGCCAAGUCCUAAGUCAACAGAUCUUCUGUUGAUAUGGAUGCAGUUCACAGACUAAAUGUCGGUCGGGGAAGAUGUAUUCUUCUCAUAAGAUAUAGUCGGACCUCUCCUUAAUGGGAGCUAGCGGAUGAAGUGAUGCAACACUGGAGCCGCUGGGAACUAAUUUGUAUGCGAAAGUAUAUUGAUUAGUUUUGGAGUACUCGUGGUCG
How it was run: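 DiMSum derived fitness as the error-weighted combination of fold changes across replicates, kanamycin versus no kanamycin, normalised to wild type. E. coli BL21(DE3) held the library, which randomised all eight P1ex-region intron nucleotides within the knt kanamycin-resistance gene on pET-22b(+). Six replicate transformations grew overnight at 37°C or 30°C on LB agar with or without 25 μg/mL kanamycin, also containing 100 μg/mL carbenicillin, 50 μM IPTG and 0.2% rhamnose, and pooled colonies were amplicon-sequenced on an Illumina HiSeq 2500.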

Sequence	self-splicing fitness (ln) (30 °C)	self-splicing fitness (ln) (37 °C)
AGGGAGCAAUAUUACGAGGU	-2.64 ± 0.17	-3.55 ± 0.31
AGGGAGCAAUAUUACGAUUC	-3.76 ± 0.35	-2.41 ± 0.29
AGGGAGCAAUAUUACGCGGU	-3.98 ± 0.21	-3.05 ± 0.24
AGGGAGCAAUAUUACGCGUC	-3.15 ± 0.29	-2.51 ± 0.37
AGGGAGCAAUAUUACGGCAU	-3.2 ± 0.2	-2.46 ± 0.23
AGGGAGCAAUAUUACGGCCA	-2.33 ± 0.33	-0.91 ± 0.31
AGGGAGCAAUAUUACGGCGA	-3.35 ± 0.4	-2.62 ± 0.44
AGGGAGCAAUAUUACGGCUC	-2.18 ± 0.24	–
AGGGAGCAAUAUUACGGGAG	-3.56 ± 0.2	-2.13 ± 0.23
AGGGAGCAAUAUUACGGUAU	–	-0.384 ± 0.39
AGGGAGCAAUAUUACGUAUC	-2.16 ± 0.25	–
AGGGAGCAAUAUUACGUAUU	-2.96 ± 0.18	-2.15 ± 0.21
AGGGAGCAAUAUUACGUCUC	-1.79 ± 0.32	-2.54 ± 0.48
AGGGAGCAAUAUUACGUUCA	-1.31 ± 0.18	-1.49 ± 0.19
AGGGAGCAAUAUUACGUUUU	-2.81 ± 0.21	-2.22 ± 0.27
AGGUAGCAAUAUUACGAAAA	-2.61 ± 0.031	-2.01 ± 0.041
AGGUAGCAAUAUUACGAAAU	-2.048 ± 0.018	-1.19 ± 0.035
AGGUAGCAAUAUUACGAACU	0.0152 ± 0.016	0.016 ± 0.034
AGGUAGCAAUAUUACGAAGC	-3.821 ± 0.036	-2.3 ± 0.042
AGGUAGCAAUAUUACGAAUG	-3.277 ± 0.026	-1.83 ± 0.037
AGGUAGCAAUAUUACGAGAC	-3.88 ± 0.039	-2.69 ± 0.044
AGGUAGCAAUAUUACGAUAA	-1.65 ± 0.018	-0.626 ± 0.035
AGGUAGCAAUAUUACGCAAU	-1.959 ± 0.017	-1.03 ± 0.034
AGGUAGCAAUAUUACGCAGU	-2.979 ± 0.021	-1.68 ± 0.035
AGGUAGCAAUAUUACGCCAC	-3.97 ± 0.058	-2.98 ± 0.069

Sequence	self-splicing fitness (ln) (30 °C)	self-splicing fitness (ln) (37 °C)
AGGUAGCAAUAUUACGCCCU	-3.56 ± 0.048	-2.45 ± 0.058
AGGUAGCAAUAUUACGCGGA	-2.062 ± 0.019	-1.09 ± 0.033
AGGUAGCAAUAUUACGCUGA	-2.032 ± 0.019	-1.14 ± 0.034
AGGUAGCAAUAUUACGCUGU	-3.789 ± 0.033	-2.97 ± 0.043
AGGUAGCAAUAUUACGCUUA	-1.2 ± 0.017	-0.467 ± 0.034
AGGUAGCAAUAUUACGGAGA	-3.57 ± 0.037	-2.82 ± 0.043
AGGUAGCAAUAUUACGGAGC	-4.047 ± 0.034	-2.5 ± 0.04
AGGUAGCAAUAUUACGGAGU	-3.487 ± 0.021	-1.72 ± 0.034
AGGUAGCAAUAUUACGGGAA	-2.69 ± 0.027	-2.11 ± 0.038
AGGUAGCAAUAUUACGGGUA	-2.347 ± 0.022	-1.31 ± 0.034
AGGUAGCAAUAUUACGGUAA	-2.123 ± 0.021	-1.2 ± 0.034
AGGUAGCAAUAUUACGGUGC	-3.382 ± 0.029	-1.98 ± 0.038
AGGUAGCAAUAUUACGGUGG	-3.787 ± 0.027	-2.8 ± 0.04
AGGUAGCAAUAUUACGGUUC	-2.769 ± 0.022	-1.51 ± 0.036
AGGUAGCAAUAUUACGUCAG	-2.334 ± 0.019	-1.42 ± 0.035
AGGUAGCAAUAUUACGUCCC	-1.02 ± 0.025	-0.535 ± 0.042
AGGUAGCAAUAUUACGUCCU	-3.01 ± 0.027	-2.01 ± 0.041
AGUAAGCAAUAUUACGAAUC	-4.12 ± 0.42	-2.86 ± 0.34
AGUAAGCAAUAUUACGAAUU	-2.92 ± 0.42	–
AGUAAGCAAUAUUACGACAA	-1.35 ± 0.17	-0.886 ± 0.17
AGUAAGCAAUAUUACGAGCG	-0.847 ± 0.072	-0.0455 ± 0.11
AGUAAGCAAUAUUACGAGGC	-2.59 ± 0.34	–
AGUAAGCAAUAUUACGAGGU	-2.56 ± 0.18	-2.89 ± 0.22
AGUAAGCAAUAUUACGAUAG	-3.75 ± 0.33	-2.86 ± 0.31
AGUAAGCAAUAUUACGAUGA	-2.3 ± 0.16	-1.03 ± 0.13

Sequence	self-splicing fitness (ln) (30 °C)	self-splicing fitness (ln) (37 °C)
AGUAAGCAAUAUUACGCAGA	-3.22 ± 0.36	-2.67 ± 0.29
AGUAAGCAAUAUUACGCAUC	-4.12 ± 0.29	-1.48 ± 0.27
AGUAAGCAAUAUUACGCCGA	-1.31 ± 0.45	-0.709 ± 0.46
AGUAAGCAAUAUUACGCUGG	-3.89 ± 0.23	-2.39 ± 0.22
AGUAAGCAAUAUUACGCUUA	-3.07 ± 0.16	-1.44 ± 0.15
AGUAAGCAAUAUUACGGAGC	-2.93 ± 0.37	–
AGUAAGCAAUAUUACGGGUA	-2.7 ± 0.15	-1.56 ± 0.13
AGUAAGCAAUAUUACGGUCG	-1.95 ± 0.083	-0.559 ± 0.087
AGUAAGCAAUAUUACGUACC	-0.632 ± 0.16	0.366 ± 0.21
AGUAAGCAAUAUUACGUACG	-1.51 ± 0.11	0.135 ± 0.14
AGUAAGCAAUAUUACGUCAA	-3.78 ± 0.21	-2 ± 0.15
AGUAAGCAAUAUUACGUCGU	-2.12 ± 0.13	-0.496 ± 0.12
AGUAAGCAAUAUUACGUCUC	-3.31 ± 0.25	-2.96 ± 0.47
AGUAAGCAAUAUUACGUCUG	-3.21 ± 0.17	-1.49 ± 0.12
AGUAAGCAAUAUUACGUGCG	-1.27 ± 0.088	-0.396 ± 0.097
AGUAAGCAAUAUUACGUUAG	-1.71 ± 0.33	–
AGUAAGCAAUAUUACGUUGG	-3.59 ± 0.48	-2.64 ± 0.36
AGUCAGCAAUAUUACGAUUG	-1.38 ± 0.11	-0.258 ± 0.15
AGUCAGCAAUAUUACGCGAU	-3.56 ± 0.24	-1.01 ± 0.14
AGUCAGCAAUAUUACGCGGG	-2.8 ± 0.16	-1.06 ± 0.2
AGUCAGCAAUAUUACGGAGC	-2.57 ± 0.12	-1.74 ± 0.13
AGUCAGCAAUAUUACGGAGU	-1.63 ± 0.062	-0.578 ± 0.073
AGUCAGCAAUAUUACGGCAA	-0.287 ± 0.083	-0.215 ± 0.081
AGUCAGCAAUAUUACGGUAA	-2.02 ± 0.12	-1.19 ± 0.099
AGUCAGCAAUAUUACGGUUA	-1.15 ± 0.087	-0.533 ± 0.073

Sequence	self-splicing fitness (ln) (30 °C)	self-splicing fitness (ln) (37 °C)
AGUCAGCAAUAUUACGUAAG	-1.61 ± 0.1	-0.51 ± 0.11
AGUCAGCAAUAUUACGUAUG	-3.48 ± 0.18	-2.43 ± 0.19
AGUCAGCAAUAUUACGUAUU	-1.08 ± 0.079	-0.181 ± 0.094
AGUCAGCAAUAUUACGUCCU	-0.258 ± 0.1	-0.279 ± 0.15
AGUCAGCAAUAUUACGUGAU	-1.52 ± 0.077	-0.719 ± 0.1
AGUCAGCAAUAUUACGUUAC	-2.88 ± 0.16	-2.36 ± 0.21
AGUGAGCAAUAUUACGACGC	-1.01 ± 0.2	-0.737 ± 0.29
AGUGAGCAAUAUUACGAGCU	-2.44 ± 0.23	-1.07 ± 0.5
AGUGAGCAAUAUUACGCACU	-2.97 ± 0.44	-2.24 ± 0.38
AGUGAGCAAUAUUACGCAUA	-4.2 ± 0.43	-2.56 ± 0.29
AGUGAGCAAUAUUACGCGCA	-2.29 ± 0.2	-2.38 ± 0.2
AGUGAGCAAUAUUACGCGGU	-3.93 ± 0.25	-3.01 ± 0.23
AGUGAGCAAUAUUACGCUAA	–	-2.09 ± 0.26
AGUGAGCAAUAUUACGGAAU	-3.11 ± 0.18	-2.16 ± 0.13
AGUGAGCAAUAUUACGGACA	-1.09 ± 0.2	-1.5 ± 0.27
AGUGAGCAAUAUUACGUAAC	-4.68 ± 0.23	-1.67 ± 0.14
AGUGAGCAAUAUUACGUCGC	-2.66 ± 0.41	–
AGUGAGCAAUAUUACGUGCC	-2.42 ± 0.49	-1.3 ± 0.38
AGUGAGCAAUAUUACGUUUG	-3.7 ± 0.23	-2.8 ± 0.24
AGUUAGCAAUAUUACGAAAA	-2.79 ± 0.49	-1.5 ± 0.32
AGUUAGCAAUAUUACGAACA	-0.687 ± 0.12	0.168 ± 0.17
AGUUAGCAAUAUUACGACGG	-0.829 ± 0.15	-0.189 ± 0.18
AGUUAGCAAUAUUACGAGGG	-4.11 ± 0.38	-2.06 ± 0.33
